Measurements reported in publication PMC5014727 (Structure (London, England : 1993), 2016).
“And” between values parts separate entries of the source, which are not always exact repeats. Equal values may be shown once. Blank lines part the entries; values can stand above or below the molecule they belong to.

B1: chemically ligated sRAGE (extracellular soluble RAGE, VC1 ligated to C2) (domain or fragment, UniProt Q15109 23-342, looked up)
chain: AQNITARIGEPLVLKCKGAPKKPPQRLEWKLNTGRTEAWKVLSPQGGGPWDSVARVLPNGSLFLPAVGIQDEGIFRCQAMNRNGKETKSNYRVRVYQIPGKPEIVDSASELTAGVPNKVGTCVSEGSYPAGTLSWHLDGKPLVPNEKGVSVKEQTRRHPETGLFTLQSELMVTPARGGDPRPTFSCSFSPGLPRHRALRTAPIQPRVWEPGCSAEVQLVVEPEGGAVAPGGTVTLTCEVPAQPSPQIHWMKDGVPLPLPPSPVLILPEIGPQDQGTYSCVATHSSHGPQESRAVSISIIEPGEEGPTAGSVGGSGLGTLA
B2: Ca2+-S100B dimer (ligand)
chain: MSELEKAMVALIDVFHQYSGREGDKHKLKKSELKELINNELSHFLEEIKEQEVVDKVMETLDNDGDGECDFQEFMAFVAMVTTACHEFFEHE

What was measured:
sRAGE ECD (Homo sapiens) = sRAGE ECD (Homo sapiens) (UniProt Q15109); details: cited from earlier work
[1] = molecular target: full length RAGE fused with yellow fluorescence protein (human) (UniProt Q15109); assay: FRET or BRET
15N NMR relaxation = molecular target: the molecule itself; assay: 15N NMR relaxation
cross-linking = molecular target: the molecule itself; assay: cross-linking
[2] = molecular target: B1; assay: ELISA

Molecule: sRAGE ECD (from UniProt Q15109)
Kd (sRAGE ECD (Homo sapiens)): 100 µM

FRET efficiency (with Ca2+-S100B) [1]: 10% | FRET efficiency (without Ca2+-S100B) [1]: 8%
Molecule: ΔDAD-DIAPH1 fused with cyan fluorescent protein (from UniProt O60610 1-1272) (natural protein)

Molecule: B1
Kd (15N NMR relaxation): 120 ± 12 µM | stoichiometry N (cross-linking): 2 and 3 and 4

Molecule: B2
Kd [2]: 0.49 ± 0.043 µM
